This data set relates to ATP. As to the kind of experiment: switch fluorescence ratio, 500 uM ATP over buffer (Cy3 cluster intensity, sum of 5 cycles each) (fold (ratio)); higher = stronger signal-on switching upon ATP binding; sequences stand for … in TCGTCGGCAGCGTCAGATGTGTATAAGAGACAGTTTTTTTTTTTTTTTTTTTTTTTTT…TC. The conditions noted are these: aptamer strand: ATP DNA aptamer (quencher-CACCTGGGGGAGTATTGCGGAGGAAGG + anchor), 100 nM annealed; ATP concentration: 500 uM. The gist of the method:
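Clusters with intensities outside 100-1000 RFU were excluded. The remaining Cy3-labelled switching-strand clusters on a modified Illumina MiSeq flow-cell had been annealed to 100 nM quencher-labelled ATP aptamer and imaged in selection buffer, then after 15 min with 500 uM ATP at 22 °C, for five cycles separated by NaOH stripping and re-annealing. The fluorescence ratio, averaged per switch-domain sequence, is each cluster's summed target-cycle Cy3 intensity over its summed buffer-cycle Cy3 intensity.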

± gives the standard deviation of the averaged measurements.
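Note: ATP exposure 15 min at 22 °C before imaging.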

In the case of TTAAGGTTTA, the switch fluorescence ratio stood at 1.02 ± 0.038.

Consider TTAAGTACG, for which the switch fluorescence ratio was found to be 1.22 ± 0.09.

Regarding TTAAGTAGGC, the switch fluorescence ratio came to 1.16 ± 0.19. As for TTAAGTATTT, the figure is 0.997 ± 0.055; as for TTAAGTCCGG, 0.9629 ± 0.0071. Consider TTAAGTGCTA, for which the switch fluorescence ratio was found to be 0.9897 ± 0.0067. On to TTAAGTGTAG, for which the switch fluorescence ratio came out at 1 ± 0.021. The value for TTAATAAACT was 1.03 ± 0.051; that for TTAATAAGAC was 1.04 ± 0.054. For TTAATAATGG, the switch fluorescence ratio stood at 0.979 ± 0.026. With TTAATAGTCA, the switch fluorescence ratio came to 1 ± 0.014. As for TTAATAGTTT, the switch fluorescence ratio came to 0.988 ± 0.04. Turning to TTAATATTCT, the switch fluorescence ratio was found to be 0.969 ± 0.065. As for TTAATCTACT, the figure is 1.01 ± 0.015. As to TTAATCTCGG, the switch fluorescence ratio was 0.9954 ± 0.0016. Turning to TTAATCTTAA, the switch fluorescence ratio was 0.972 ± 0.018. As for TTAATCTTTT, the switch fluorescence ratio turned out to be 1.06 ± 0.14. With TTAATGCCGT, the switch fluorescence ratio came to 1.05 ± 0.076. For TTAATGCTAA, the switch fluorescence ratio stood at 0.99 ± 0.036. Regarding TTAATGGCGG, the switch fluorescence ratio came out at 0.995 ± 0.02. TTAATGGGTG: the switch fluorescence ratio was found to be 1.05 ± 0.015. TTAATGTATT: the switch fluorescence ratio came to 0.995 ± 0.016. As for TTAATTATAT, the figure is 1.02 ± 0.018; as for TTAATTGGTT, 0.997 ± 0.031. For TTAATTTGAA, the switch fluorescence ratio was determined as 0.997 ± 0.013. Turning to TTAATTTGCA, the switch fluorescence ratio was determined as 1.01 ± 0.04. On to TTAATTTGGA, for which the switch fluorescence ratio was found to be 1.014 ± 0.0088. For the sequence TTAATTTTA, the switch fluorescence ratio turned out to be 1.014 ± 0.0011.

With TTAATTTTGT, the switch fluorescence ratio stood at 1 ± 0.012. Consider TTACAAGCGA, for which the switch fluorescence ratio came out at 1.03 ± 0.019. The value for TTACAATTTT was 0.985 ± 0.019; that for TTACACAAAA was 1 ± 0.033; that for TTACACCTTT was 1.02 ± 0.0085. Regarding TTACAGCATT, the switch fluorescence ratio was 1.07 ± 0.067. Regarding TTACAGTTAA, the switch fluorescence ratio is 1.01 ± 0.021.

On to TTACAGTTTT, for which the switch fluorescence ratio amounted to 0.9442 ± 0.0036.

TTACATGGTA: the switch fluorescence ratio turned out to be 0.977 ± 0.0024. As for TTACATTTGG, the switch fluorescence ratio stood at 0.9846 ± 0.0036.

For the sequence TTACCAGTCT, the switch fluorescence ratio was found to be 1 ± 0.046.

In the case of TTACCCCAGT, the switch fluorescence ratio was determined as 1.21 ± 0.036. For the sequence TTACCGGACT, the switch fluorescence ratio was 1.11 ± 0.042. In the case of TTACCGGCGC, the switch fluorescence ratio is 1.14 ± 0.18.

As to TTACCGGGAT, the switch fluorescence ratio is 1.02 ± 0.031.

As for TTACCGTGGG, the switch fluorescence ratio was 1.05 ± 0.029. The value for TTACCTTAGT was 1.06 ± 0.034; that for TTACGATGGG was 0.97086 ± 0.00075. As to TTACGGATAA, the switch fluorescence ratio came out at 1.49 ± 0.67. Take TTACGGATGG: the switch fluorescence ratio stood at 1.03 ± 0.065. Consider TTACGGGCTC, for which the switch fluorescence ratio came to 0.985 ± 0.058. In the case of TTACGGGGCA, the switch fluorescence ratio turned out to be 1.04 ± 0.019.

Regarding TTACGGTGAA, the switch fluorescence ratio is 1.07 ± 0.072. Regarding TTACGGTTGG, the switch fluorescence ratio came to 0.995 ± 0.025. As to TTACGTAAGG, the switch fluorescence ratio is 1.23 ± 0.051. For TTACGTGTTA, the switch fluorescence ratio was found to be 0.995 ± 0.041.

As for TTACGTTACG, the switch fluorescence ratio came out at 1.34 ± 0.047. Regarding TTACTAGTAT, the switch fluorescence ratio is 1 ± 0.025. Turning to TTACTATCTG, the switch fluorescence ratio worked out at 1.01 ± 0.019. The value for TTACTATGAA was 1.039 ± 0.0071; that for TTACTCAGCC was 1.12 ± 0.055; that for TTACTCGGTC was 0.99 ± 0.052. On to TTACTGATGG, for which the switch fluorescence ratio was determined as 0.99 ± 0.033. Regarding TTACTTAAAA, the switch fluorescence ratio stood at 0.988 ± 0.04. With TTACTTGAGA, the switch fluorescence ratio was determined as 0.99 ± 0.032.

Regarding TTACTTGTAC, the switch fluorescence ratio stood at 1.15 ± 0.025. For the sequence TTACTTTGCT, the switch fluorescence ratio is 1.003 ± 0.0061. As to TTACTTTTCG, the switch fluorescence ratio is 1.03 ± 0.057. For TTAGAAAACT, the switch fluorescence ratio is 1 ± 0.012. As for TTAGAAAATA, the switch fluorescence ratio was 1.12 ± 0.15. Regarding TTAGAAAGTC, the switch fluorescence ratio stood at 1.64 ± 0.93.

Take TTAGAACTCC: the switch fluorescence ratio was 1.05 ± 0.036. With TTAGAAGCTT, the switch fluorescence ratio came to 1.03 ± 0.03. In the case of TTAGAAGTAT, the switch fluorescence ratio came out at 1.03 ± 0.046. TTAGAAGTGG: the switch fluorescence ratio is 0.988 ± 0.025. On to TTAGACGGCC, for which the switch fluorescence ratio stood at 1.03 ± 0.014.

As for TTAGACGGGA, the switch fluorescence ratio turned out to be 1.026 ± 0.0043.

For TTAGACTTAT, the switch fluorescence ratio was 1.01 ± 0.021. TTAGAGACAG: the switch fluorescence ratio was found to be 0.985 ± 0.049.

Turning to TTAGAGCATT, the switch fluorescence ratio was found to be 1 ± 0.026. For TTAGAGGCCC, the switch fluorescence ratio came to 1.01 ± 0.032. Take TTAGAGGGAC: the switch fluorescence ratio amounted to 0.971 ± 0.014. Consider TTAGAGGGGT, for which the switch fluorescence ratio turned out to be 0.992 ± 0.03.

Regarding TTAGAGGTCT, the switch fluorescence ratio was 0.978 ± 0.011. Take TTAGAGTGGT: the switch fluorescence ratio came to 1.01 ± 0.033. Turning to TTAGATATGG, the switch fluorescence ratio amounted to 1.02 ± 0.026.

As for TTAGATCTGC, the switch fluorescence ratio stood at 1.02 ± 0.083. As to TTAGATTGCG, the switch fluorescence ratio is 0.973 ± 0.026. The value for TTAGATTTAA was 0.998 ± 0.013. TTAGATTTTA: the switch fluorescence ratio is 0.961 ± 0.034.

Consider TTAGCAGCGC, for which the switch fluorescence ratio came to 1.01 ± 0.055. As for TTAGCATAGT, the switch fluorescence ratio was determined as 0.98 ± 0.024. Take TTAGCCGGAC: the switch fluorescence ratio came to 1.05 ± 0.013. In the case of TTAGCGCCGG, the switch fluorescence ratio turned out to be 1.03 ± 0.034. The value for TTAGCGTAGG was 1.02 ± 0.0011; that for TTAGCGTTTT was 1.16 ± 0.25; that for TTAGCTTCTT was 1.07 ± 0.066. As for TTAGGAAA, the figure is 0.984 ± 0.044. As to TTAGGAACAC, the switch fluorescence ratio turned out to be 1.07 ± 0.12.

Consider TTAGGAACAT, for which the switch fluorescence ratio was 1.2 ± 0.23. As to TTAGGAAGAC, the switch fluorescence ratio stood at 2.27 ± 1.4.

On to TTAGGAAGTT, for which the switch fluorescence ratio is 1 ± 0.033. As for TTAGGAGACT, the switch fluorescence ratio was determined as 0.991 ± 0.029. TTAGGAGTGT: the switch fluorescence ratio was found to be 0.9863 ± 0.0051.

Consider TTAGGATAT, for which the switch fluorescence ratio came to 1.02 ± 0.041. Consider TTAGGATTCG, for which the switch fluorescence ratio was 1.02 ± 0.039. As to TTAGGATTTT, the switch fluorescence ratio stood at 1.01 ± 0.011. As for TTAGGCAGGG, the figure is 1 ± 0.016; as for TTAGGCAGGT, 0.994 ± 0.048. With TTAGGCCCTT, the switch fluorescence ratio was 1.02 ± 0.011. On to TTAGGCCTTT, for which the switch fluorescence ratio worked out at 0.972 ± 0.048. On to TTAGGCGCCG, for which the switch fluorescence ratio turned out to be 0.994 ± 0.054. Turning to TTAGGCGGGT, the switch fluorescence ratio was determined as 1.01 ± 0.064. For the sequence TTAGGCGGTT, the switch fluorescence ratio worked out at 1 ± 0.017.

Regarding TTAGGCTAAA, the switch fluorescence ratio is 1.002 ± 0.0074. For the sequence TTAGGGATCT, the switch fluorescence ratio was determined as 0.9904 ± 0.0042. For TTAGGGCTTA, the switch fluorescence ratio is 0.995 ± 0.013.

For TTAGGGGAAA, the switch fluorescence ratio was 1.03 ± 0.066. As for TTAGGGGACA, the figure is 1.04 ± 0.025; as for TTAGGGGGAC, 1 ± 0.041; as for TTAGGGGGAT, 0.988 ± 0.019. In the case of TTAGGGGGCA, the switch fluorescence ratio is 1.01 ± 0.03.

(Values after the supplement of paper PMC10126150.)
